Measurements: the DeepSol protein solubility set

experiment: soluble on expression in E. coli; label from the status in PepcDB or PDB records

Row | Sequence | soluble on expression in E. coli
1 | MKYVEVIMSIKDEGEFFMKVLQKNEFLQKSNETLASILDMLEKLPVVKFDEIEADKAVLVIIDMTNGFAKEGALKSDAVKELIPRICELSEICDRRKIRKIAFADCHTDESPEFDAYPKHCMKGTAESEIVDEIKNIGGYTLIEKNSTNGFLEEAFRKWLLENPDINTFILTGDCTDICVQQFAITLKAYFNMNNKRARVIVPLNAVDTYDLGVHDRNLMNVMAAYNMIINGVEVVRDIVE | not soluble
2 | MSLNYSNDIFEEDTFNPGNDNLFLKTASVGTGEYFILPRLCAHLAKNAPKFVLKISSLSEYLSLEYLLMSELDFAIGPGFVETGNNIIRELLFEEEAVCIMHKSHPLANQELTQDMYLQAEHVDIQFSYMGNENILYKALQGYHQRNIKVIVPNIISALEVVYHTNFITTVPRTLAVTFKDRYQIELHPFPFPKKTFLVNFYYHKRLSNHKPLQWVLDVIKKYCCVNHEGHHHHHH | not soluble
3 | GPGSMDSINSVTFEWVRAGPAYTLDGPHVYHSGCLGSYQPAIGGLEMPAGHGKYFYEIQTSDTRCKVGVCTEDAFLSNVNLGDVELHAAQPSSSLNSRLSEANCCLFNCLTCAVEVNGVEVRSLWRLLVPSAGARFGFLVNTDEGAVQLYVNGEYQGLIADTATGFKGKKLRPCIALDAPPTCGAGAEANKSSASVVPPRKIIASTA | not soluble
4 | MELKLIPIEKPENLNVILGQAHFIKTVEDLHEALVTAVPGIRFGLAFSEASGKRLVRRSGTDEALVELAVKNLLNLACGHVFLIVLGEGFYPINVLHAVKACPEVVRIYAATANPLKVVVAEEGEQRAILGVMDGFTPLGVEDEAEVAWRKDLLRRLGYKL | soluble
5 | MTNIIKIRASVFIPMSWTEAKMDMETGQVIQFEGDSREFTPHAVNTMRSRVEQEVVVDFYKQEVFSYANTGITTEKVISPDGSVNKRTGKASTENIVCTDIVWNSGGVQFKMSASASNPLNVYAPPVDYVLNVCVKKDGSIDVQGEHDGFPCFEFYKQVDFGPFEKIYTHDFRETGDTAAALGGNMDYSFTKRL | soluble
6 | MSLSTIKDIARVAGVSVATVSRVVNNDPKVKEKTKLKVTKVMLDLNYTPNANARALVTQKNTTIGVIIPSLTDPFFASLANGVEQVARQQSMQLLLSTGLVSAESERQAINLLRERRCDVMVVHSKKLTDDELIALSEQIPGLVLIDRHIEQISHRCVWLDNLEGGKIAARHLLALNHQKFASISSKYQIEDPGLRLEGFTRELTGAGFAIDKELIEYGEPNLQGGEIATQHLLSSGKTFSALFVYNDAMAIGAISTLEDNGYRVPQDISVIGFDDVLLSRYSRPKLSTLNYPIEEMAQQAANLAIELTKERKAAKDEYKVESKTHKYVPRLVKRESTSLEGHHHHHH | soluble
7 | MGSDKIHHHHHHMKIYRVGGSVRDELLGLPVKDQDYVVVGATPEEMVRLGYRPVGKDFPVFLHPETHEQYALARTERKIARGYKGFEVYAAPGVTLQEDLARRDLTINAMARDEAGDIVDPFGGIADLQAGILRHIGPAFVEDPVRVLRVARFAARFGFQIAPETLELMKEIVHTGETEALVPERVWQEIAHGLMESHPSRMFYVLRECGALARILPEVDALFGVPQPAHAHPEIDTGIHVMMVIDHAASKQYPLEVRFAGLTHDLGKGTTSPDEWPRHIGHEARSVELVMGLCERIRVPGESRDLALLVARFHGDVHRALELRPATIADMLQATDAYRKKARFQAFLQACASDFHGRPGFADKPYPQKEHLSRALQVAVDVDAGAIAMQLNQSHAGKADLPMRINRQVYAARVERISSLLSHL | not soluble
8 | MAGDPMKKLAFAITATSGAAAFLTHHDAQASTQHTVQSGESLWSIAQKYNTSVESIKQNNQLDNNLVFPGQVISVGGSDAQNSSNTSPQAGSASSHTVQAGESLNIIASRYGVSVDQLMAANNLRGYLIMPNQTLQIPNGGSGGTTPTATTGSNGNASSFNHQNLYTAGQCTWYVFDRRAQAGSPISTYWSDAKYWAGNAANDGYQVNNTPSVGSIMQSTPGPYGHVAYVERVNGDGSILISEMNYTYGPYNMNYRTIPASEVSSYAFIHLEHHHHHH | not soluble
9 | MNILLFGKTGQVGWELQRSLAPVGNLIALDVHSKEFCGDFSNPKGVAETVRKLRPDVIVNAAAHTAVDKAESEPELAQLLNATSVEAIAKAANETGAWVVHYSTDYVFPGTGDIPWQETDATSPLNVYGKTKLAGEKALQDNCPKHLIFRTSWVYAGKGNNFAKTMLRLAKERQTLSVINDQYGAPTGAELLADCTAHAIRVALNKPEVAGLYHLVAGGTTTWHDYAALVFDEARKAGITLALTELNAVPTSAYPTPASRPGNSRLNTEKFQRNFDLILPQWELGVKRMLTEMFTTTTI | soluble
